Where two headings read alike, the source gives them in different places.
Key:
[1] = tested on: rCTS (TRX-L1 ORF2p CTS, wild type) (Homo sapiens (LRE1 / L1.2 element, pSM42)); assay: EMSA
[2] = tested on: rCTS (TRX-L1 ORF2p CTS, wild type) (Homo sapiens (LRE1 / L1.2 element, pSM42)); assay: EMSA; remark: listed apart in the source

380 nt L1 3'UTR RNA
Kd [1]: 63 nM
Kd [2]: 57 nM

Reference: publication PMC3821027
